The nature of this series: label from the status in PepcDB records.
Take “MKQQLESFIETTKPSALVADMFFPWATESAEKLGVPRLVFHGTSFFSLCCSYNMRIHKPHKKVATSSTPFVIPGLPGDIVITEDQANVAKEETPMGKFMKEVRESETNSFGVLVNSFYELESAYADFYRSFVAKRAWHIGPLSLSNRELGEKARRGKKANIDEQECLKWLDSKTPGSVVYLSFGSGTNFTNDQLLEIAFGLEGSGQSFIWVVRKNENQGDNEEWLPEGFKERTTGKGLIIPGWAPQVLILDHKAIGGFVTHCGWNSAIEGIAAGLPMVTWPMGAEQFYNEKLLTKVLRIGVNVGATELVKKGKLISRAQVEKAVREVIGGEKAEERRLWAKKLGEMAKAAVEEGGSSYNDVNKFMEELNGRK”: the protein production result is listed as “failed”.

Take “MKQRTLPAAFLLALSIASLAGCASPTVITLNDGREIQAVDTPKYDEDSGFYEFKQLDGKQTRINKDQVRTVKDLLEHHHHHH”: the protein production result is “failed”.

On to “MKQTPPLISFITICYNGLDDTCMLIESLRDTISSVSYEIIVVDNASRQDEASLIQERYPFVRTLRSEKNLGFSGGNNLGIQIAQGKYLFLINNDTYLTEDGLPALIERLESDPRIGAVSPKIRFAFPPQSIQFAGYTKLSRYTMRNKALGMGCPDDGTFDTPRPSAYLHGAALMLKREVIWKAGLMPEIYFLYYEELDWCTSMTRAGYQLWYEPRCTIFHKESQSTGRQSPLRTFYMMRNRMLYAWRNLPGMERCLAIAYQMLIVAPKDSLCFVLKGEPKLAKAVWHGVKGFWKLCLEHHHHHH”, for which the protein production entry is given as “not failed”.

As for “MKRADFCIIGLGRFGMQVAHSLKENNFTLVLIDNDQHKTNTAAQEFDHVVCCDGSNLTALAELQLEEFSAVIVGVTNIEASIMICANLRELGQKNIIARAKNEVHNRVLRTMGIREALIPEKIVGKNLVIRLIHGMETEIINLGNDILFVRAPVNNKKLFNRTLGEINIREHTNANLISIMRNGKDVVFPLGPNTQIQPGDVITAVCQLSGVNQYLRYINPNDKNKYKASE”, the protein production entry is reported as “failed”.

With “MKRAFAAVAATVCLFLLVQLGSLALVEPFMSAGFQAVEDPSDPTNSLLYIIAILVATGVMLAAMKFGVDRLLQGLVLFAAVFISFYVFTVVVPPVVAVAGLNLVAVALALALGVGLLVYPEWYVIDAAGIVMGAGAAGLFGISFGLLPALVLLVVLAVYDAISVYGTEHMLALASGAMDLRLPVIFVVPLTLSYSFLDADNPESLEDDTPESDAEAEPDEGDDVSTATGDAEPVDTMAEDADTDADSDADADDPAAAEAAPDEHADPFARDAFFIGLGDAVIPTILVASAAFFRPGGVELLSVPGIALTVPALGAMVGTIAGLLALMWFVMKGRAHAGLPLLNGGAIAGYLLGAAAVGIPVVEALGVAPYL”, the protein production entry is “failed”.

Consider “MKRANIVKLIVDKKTHEKLKELAIATAKCWNEVNWLRMQQFKKGERVDFSKTEKDVYEKYKQILKVNTQQVARKNAEDWRSFFSLIEEKKEGKLPRWFKPRPPGYWKDKIGKYKLIIIIRKDRYEVNEEKRIIYLKDFKLSLSFKGKLKWHGEQGRLEIIYNEARRIWYAHIPVEVQNDVKAEGKLKASIDLGIVNLATVYVEDGSWYIFKGGSVLSQYEYYSKRISIVQKTLARHKQRRSRKMKLLYEKRKRFLKHALNSMVRKIMEELKKKGVSKLIIGYPKEISKDHGNKLTVNFWNYGYIIRRFEEVGEELGIEVVEVDEAWTSKSCSLCGEAHHRGRIKRGLYRCPRMGKVINADLNGAINILHIPESLGAGSGGQLPVRDRGNGLKAQPAVYRWSNGVGWVSSPTSYEVMKMKAVNRKPMNRPKGTLAL”, for which the protein production result is “failed”.

As for “MKRDRNLTWHRTDALRPNLEGRQVAVIGGTGGIGRALSRHLASLDARVVVVGQTFRDADVPGIRFIQADLSLMHEAQRVAGLLPAQTLDLVIFTTGIFAAPQRQETTEGIERDLAVSYLNRLVMLRAIAPTLGTQRARPAMKPRVFIMGYPGSGQTGAPDDLNAEAPYKAMAAHMNTVAGNEMLVLDAALRYPQATFFGLNPGLIKTGIRDNFFGKGSVKSRIAETLIGWLTPTADTYAQRITPLLMSPDLEGHSGAMFNSKGQAILPSPGLGEAHIRKFMAASEALANRTGIHPIGQEDRP”, the protein production entry is “failed”.

As to “MKREIQVSVFLTFITLAYYLLNSLALEFLGLGFISIPLTILLPASILFERERPNPISRVTYIFSMLWLVFLIYLLTGWALVQFIWFFLDLPCLKILAVSLAALSVSYGVFRARKIEVKRVEIPFPVEESLRFVQLSDIHLGTVRSAGFLKEVSEAVRRVEAAAVLITGDLLDGSRPVDSSIISSLETGAPIFFVSGNHDTYSGDFRSTVSDAGIMCIDQSVIEFEGIQIIGVGYSMERHSLPAILDLLEFDEDRPVLLLHHLPVDWEDARERGVDLQLSGHTHGGQFYPFNIIVGLMFPFLRGLYSDSGGFLYVSEGTGTWGPPVRLGSSCEITVIDLVPFKEI”, the protein production result was “failed”.

On to “MKRERSDFEESLKNIDIAKCLMILAQTSMVKQIGLNQHTESHTSNQFECKTCNKRFSSFQALGGHRASHKKPKLTVEQKDVKHLSNDYKGNHFHKCSICSQSFGTGQALGGHMRRHRSSMTVEPSFISPMIPSMPVLKRCGSSKRILSLDLNLTPLENDLEYIFGKTFVPKIDMKFVL”, for which the protein production result was “failed”.

For the sequence “MKRFIIKSDRIGFSIWEETDLKEALELWGNSNVTKYITADGKMSIEDVKTRLKVEIEFYEKYKVQYWPIFLNETSENLGVCGLHPYNIKDSVFELGVHLREKYWGIGVAEKACNLVMRYAFENLQAKAIFVGHNPNNKASKKLIKKLGFTYTHDEFYEPTGLYHPSYLITCNEFIEVKNKLKGGKIIGKNK”, the protein production result is “not failed”.

Take “MKRFVLFLLFMCVCVQAYAEQDYFFRDFKSRDLPQKLHLDKKLSQTIQPCMQLNASKHYTSTGVREPDKCTKSFKKSALMSYDLALGYLVSKNKQYGLKAIEILNAWAKELQSVDTYQSEDNINFYMPYMNMAYWFVKKAFPSPEYEDFIKRMRQYSQSALNTNHGAWGILFDVSSALALDDNALLHNSANRWQEWVFKAIDENGVIASAITRSDTSDYHGGPTKGIKGIAYTNFALLALTISGELLFENGYDLWGSGAGKRLSVAYNKVATWILNPETFPYFQPNLIGVHNNAYFIILAKHYSSPSANELLKQGDLHEDGFRLKLRSP”: the protein production entry is “failed”.

For “MKRGNEENNHKTSSSSSTQRLSRRKISAGEKSGNVNIPLDLTVEILKKLPAKSLLRFQCVSKQWLSIISSRRDFIDSIVTRSLTQPPPRDIKLIFHHQVLYPGPHFFIFSSTYPQNTDKESLTTRASSYHYVRGLICCWSHCPTTVDIYNPTTRQYYTVPDTNRYQYIETCFFGYDPVENQYKVMVLPKYYMEESPCQVFTVGDPIEKPWRDIQGIGVHFLLKDAVCINGVIYYQATNEYGSTYFLVSFDVRSEKFNHVKAPKILTDHPCTLINYQGKLGLIMCCKKGLEIWVMEDAEKKQD”, the protein production entry was “failed”.

For “MKRIFKGHSPWGFLSFRHAENQEPPRYLTGYTPVKRIHKAASMGDIPQVQKLLEFGNIDVNITDRKKRTALHYACAHGQSEMVSLLLWYDCNIEARDREESTALIKATQRQHEICVKILLENGADPNAVDAYHITALHYAVYNNDTAIAAKLLSFNANTEIKTKNGYTPLILAVLENKQEMVELLLRAAANINALDNCKRSALIHAVRIQSKNMISLLLQQGADPSLVDIYGATAQSYAVFETFQVLSQSPGPSCPELTTKEDKQSFDTKDGCIPHSHHIKEDNQEMEENTDDKLGSPAALKHKEKELENCEECNSEADTYPESYSKTSSAQRRSNSEPTEVDDEPSFSTKPPVAQSPMFTESSLWVGYPADWPEPVKFSRQPAVYNPTEWREDMESRSVPREESKQQVAIFPEGKEADVQTQELLSRVFKESGDNDPNLPAIENTKDELVSLLAPLEENKPQMTEFPLIEAAKFQTDVQLDRCPCFLLSLRNSLSGTLD”, the protein production entry is “failed”.

For “MKRIKLVRHGESAANAGQASRNHESIPLTHRGLEQAITVARSFTKAPELIVASPFSRAQATAQETSAIFPTVAIETWPIQEFTYLAPARCVDTTVAQRRDWVDAYWARAEPAFCDGEGAESFLDFVYRAQAFLKQLAGHSAANTVVFSHGQFLNAVAWLLERRPQSLDRHAMADWRRYEIENHIPNGCGFYLSQSSTGAEWVLGHRNY”, the protein production result is “failed”.

With “MKRILVSLYEKEKYLDILRELHEKGWEIWASSGTAKFLKSNGIEANDVSTITGFENLLGGLVKTLHPEIFAGILGPEPRWDVVFVDLYPPPDIDIGGVALLRAAAKNWKKVKPAFDMETLKLAIEIDDEETRKYLAGMTFAFTSVYDSIRANQFVEGISLAFKREDLQLRYGENPHEKAFVYGKPAFEILHEGKTISFNNILDAENAWFMAKNLPRMGAVVVKHQSPCGAAIGEDKVEIVKKAIEADDESSFGGILAVNFEMDEEVAKSLKKYLEVIVAPSFTQEAIEVLSKKKVRLLKPGDYASWAGKMAFGSLVLSERKYPEGNFELVVGEPLSEKELEDLEFAYRVVEGAKSNAVLIAKDGVTVGIGSGQPSRKRAAWIATVMAGEKAKGAVAASDAFFPFPDSLEILAQAGVKAVVAPLGSIRDEEVIEKARELGITFYKAPSRVFRH”, the protein production entry was “not failed”.

On to “MKRKAVNFHPQVDMSIGDKYLLKEFIDEGSFGYVWKAVNLENRQTVALKIPKDQERGDNTLSEGKEFIGSHHPNVISIYWMGRVDGVFLIEMEYFNGHKLSDELCETGFKSPRTFEEIYNLFFQILDGVEYIHSKHICHGDIKPQNILIDGKIAKITDFGTSKLIEDLFIKTIDGGGTWAYMAPEVAGSNRRYLNSDIYSLGVLLYKFLTGRTPHETANQLINNIPYPKPREINNNIPESVERIIMKLLKRNPDERYQNISEIKRDLEEALRSEDRNIISYNERAEVKYEDTDWIERVIRYYKNNEFDKAELLLKTEYENGNKSADVLYHIAYTYFQQGRYFESMDVIKDIDITQVEDIRQEALEDNLLYLKGKLFFELKKYEEAVKVYEKLVSRNPDDLNYRYKLACAYGLNDEQEKSIEILEDINKKTPGMLYIVKKLGHAYDQIKDFKKARAYFNYAIRLDPSDTIIRNRLEEYSKYFNYLGY”, for which the protein production result was “failed”.

Take “MKRKISMNKYVVSTILVMISTFFSRIMGFVKIKIFSYYFGANLDADIFNYVFNIPNNLRKILSEGAMTSAFLPEFTHEKNKSHEKAVSFFRTVITFNIISIGLIVLVMIIFAKPIMYFISYYRGENLIFASSVFGYLVLYILLISLSSIFVSVLNSYKIFFIPSFSPIMLSFGIILSIFLFYGRFGIYSAVIGVIFGGFLQFLIPFANCLMIGFAWKPTFYFREKVFLNFLTRWLRMIFGFSISIITQQISFALASTLEIGSVSILSNAVVYYQLPVGIFYISIATVIFPKMAEHAVLGNNIKLNALLVDGIKILLLIFIPVSFLMFIWSDYILNLFLMGGKFSIYDTQKTASVLKCFLLGLLFYSMFGFFQKYYFSIRDAKTPFYLSVLFSILDIAISVFGINYYGLNALALAQSISFMICVIVFYFIILKRGVKIDLIEILFVLLKSIITLFPLYAIYFFFEKFQWDVGFSFKNLYFLMAAGIVSIFVLFICYSVLGINKLFRYIRRDAL”: the protein production entry is recorded as “failed”.

For the sequence “MKRKLTTKFIESQKPNPSKRLDFRDELMPGLVLRISTSGTKTFCLHKRISGKMRRLTIGRFGVVSLAEARERVRKVLYEIETGRFEDRTGVEVETKPTLGDVIPDYIEKHAKVHNRDWKRKEALLAKFAALHVKRIDEIKRADVVKACDLIHKSAPVSANRALAHLKHLMGWCVERGMIDASPIAGMKPLSKERSRERVLTDDELGALWTACDAEGYPFGDCMKLLILSGQRRAEVAEMRWTELDLEKRLWTLPSQRAKNGRQHTVPITDAMIDVLRRVPRFLGSDYVFTTTGKSPVSGFGRLKDRLDKALPEGTEPWIIHDLRRTMSTNMAMLGVPQPVTEALLNHKTGVVSGVAAIYNVYSYTDEKCEALEQWNRHLTKMTQGHSDRLAGKMSAQFSA”, the protein production entry is given as “failed”.

Values taken from a protein production outcome set (Wang et al. 2014).
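Further: failed if final PepcDB status was selected cloned or expressed and not failed if soluble or beyond.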
